Test results as given in publication PMC6643271 (Biochemistry, 2018).

Assays:
Conditions in all cases: 10 mM ATP, 14 mM MgCl2, 100 mM KCl, pH 8.0, 25 °C
NC(=O)CC[C@@H](N)C(=O)O = test: purified protein
NNC(=O)CC[C@H](N)C(=O)O = test: purified protein
N[C@@H](CCC(=O)NO)C(=O)O = test: purified protein
[1] = molecular target: Cj1418 (L-glutamine kinase) (Campylobacter jejuni, UniProt Q0P8J6)
Cj1418 (L-glutamine kinase), sequence (Q0P8J6 whole entry): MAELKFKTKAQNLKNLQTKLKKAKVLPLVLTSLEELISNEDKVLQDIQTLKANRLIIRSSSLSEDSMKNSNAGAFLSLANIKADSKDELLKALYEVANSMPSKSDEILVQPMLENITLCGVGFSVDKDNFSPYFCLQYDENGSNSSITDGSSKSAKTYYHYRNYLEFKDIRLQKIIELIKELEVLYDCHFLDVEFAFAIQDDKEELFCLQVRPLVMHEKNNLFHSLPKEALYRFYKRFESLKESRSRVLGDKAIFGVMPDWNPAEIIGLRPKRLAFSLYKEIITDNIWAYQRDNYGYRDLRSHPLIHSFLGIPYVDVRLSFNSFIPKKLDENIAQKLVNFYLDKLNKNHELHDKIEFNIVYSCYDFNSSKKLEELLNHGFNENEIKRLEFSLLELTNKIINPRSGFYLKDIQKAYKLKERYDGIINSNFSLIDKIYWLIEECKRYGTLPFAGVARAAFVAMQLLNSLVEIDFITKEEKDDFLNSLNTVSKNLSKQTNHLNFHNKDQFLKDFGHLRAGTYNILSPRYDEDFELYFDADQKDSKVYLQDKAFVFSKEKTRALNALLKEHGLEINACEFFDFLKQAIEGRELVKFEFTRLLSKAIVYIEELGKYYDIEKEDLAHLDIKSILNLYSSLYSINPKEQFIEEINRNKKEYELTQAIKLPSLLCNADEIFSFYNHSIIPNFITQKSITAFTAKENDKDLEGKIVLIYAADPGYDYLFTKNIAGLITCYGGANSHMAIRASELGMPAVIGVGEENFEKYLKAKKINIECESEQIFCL

Row | Compound | Km (NC(=O)CC[C@@H](N)C(=O)O) [µM] | kcat (NC(=O)CC[C@@H](N)C(=O)O) [s⁻¹] | kcat/Km (NC(=O)CC[C@@H](N)C(=O)O) [M⁻¹ s⁻¹] | Km (NNC(=O)CC[C@H](N)C(=O)O) [µM] | kcat (NNC(=O)CC[C@H](N)C(=O)O) [s⁻¹] | kcat/Km (NNC(=O)CC[C@H](N)C(=O)O) [M⁻¹ s⁻¹] | Km (N[C@@H](CCC(=O)NO)C(=O)O) [µM] | kcat (N[C@@H](CCC(=O)NO)C(=O)O) [s⁻¹] | kcat/Km (N[C@@H](CCC(=O)NO)C(=O)O) [M⁻¹ s⁻¹] | Km [1] [µM]
1 | Cj1418 (L-glutamine kinase) (Campylobacter jejuni subsp. jejuni NCTC 11168 = ATCC 700819) | 10500 ± 1800 | 1.5 ± 0.1 | 140 ± 30 | 17200 ± 3800 | 0.41 ± 0.05 | 24 ± 6 | 1500 ± 400 | 2.1 ± 0.2 | 1400 ± 360 | –
2 | NC(=O)CC[C@H](N)C(=O)O [compound 1, L-glutamine] | – | – | – | – | – | – | – | – | – | 640 ± 60
